The values below come from article PMC2953525, “Subtle Alterations in PCNA-Partner Interactions Severely Impair DNA Replication and Repair” (PLoS Biology, 2010).

One assay concerns yeast strains. As to the kind of experiment: Growth sensitivity of PCNA mutant strains to MMS and HU. Conditions: for effect of overexpression of Rad27, Rad30, Pol32, and Msh6 on growth sensitivity to DNA damaging agents: Figure S9, GAL1/10 inducible GST-tagged partners; for effect of rad30 deletion on strain growth sensitivity phenotype: Figure 6B; for effect of rad27 deletion on growth sensitivity of the mutant strain: Figure S8, parent vs rad27-deleted strains. In kind it is cell-based. The source says:
Next, we examined the sensitivity of strains containing single deletions of each of the five different partners on a WT PCNA background. […] We first examined whether the rad27 deletion can suppress the lethality of a strain containing the pol30-Rad27L1 or pol30-Rad27L2 mutants (Figure 6A). […] In addition, we examined whether rad30 deletion, ung1 deletion, and msh6 deletion can suppress the phenotypes of the pol30 mutants with increased affinity to Rad30, Ung1, and Msh6, respectively (Figure 6B–D). […] However, since the suppression of the strain phenotypes was not complete, additional factors, such as minor effects of the mutations on other PCNA-partner interactions, may play a partial role in the sensitivity phenotype of the examined pol30 mutants. […] We also examined whether overexpression of different partners can suppress the growth sensitivity of the pol30 mutants, however no suppression was observed (Figure S9).
Novel haploids containing PCNA mutants were generated using the plasmid shuffling method. Briefly, a pol30::KanMX magic marker heterozygote diploid strain BY4743 (Open Biosystem) was transformed with plasmid pRS316-POL30. Following dissection of the diploid, a haploid containing the CAN+ gene and plasmid pRS316-POL30 as a sole source of PCNA was generated. This host strain was transformed with selected pRS315-pol30 mutants, plated on SC-Ura-Leu plates, followed by replica plating to SC-Leu+5FOA plates. Haploids, containing PCNA mutants as a sole source, were further verified by plating on either SC-Leu or SC-Ura plates. For testing selected PCNA mutants, a haploid containing rad27::HYG, rad30::HYG, pol32::HYG, msh6::HYG, or ung1::HYG were generated using plasmid pAG32 by conventional genetic approaches. Growth of the PCNA mutant strains in the presence of 120 mM HU (Toronto Research Chemicals) or 0.02% MMS (Sigma) was performed as described. To examine the effects of partner overexpression on pol30 mutant strains, these strains were transformed with various plasmids containing GST-tagged PCNA partner encoding genes under the control of a GAL1/10 inducible promoter, as previously described. Overnight cultures were plated in serial dilutions on SC-Ura containing either glucose or galactose with or without DNA-damaging agents, as described above.

The target of another assay is Msh6 PIP peptide. Kind of assay: SPR analysis of PCNA binding to PIP peptide. The arrangement: species or system yeast. Conditions: peptide 5-5,000 nM. The source says:
(§1) To quantify differences in binding affinities of the PCNA mutants relative to the WT, we characterized four PCNA mutants with increased affinity for PIP peptides derived from Rad30, Pol32, Msh6, and Ung1 partners using SPR. These mutants were overexpressed in E. coli, purified by affinity chromatography, and immobilized on an SPR sensor chip for binding characterization. SPR binding analysis enabled direct and sensitive measurement of interaction affinities relative to the Y2H system and indicated an up to 8-fold increase in binding affinity for the different PIP peptides, relative to WT PCNA (Table 1). Such analysis allowed the detection of a significant decrease in the Rad30 PIP peptide dissociation rate in the Pol30-Rad30E9p mutant relative to the WT, indicating a ∼9-fold increase in the lifetime of the PCNA-Rad30 complex (see Table 1). Collectively the ELISA, Y2H, and SPR assays validated and quantified the increase in mutant PCNA binding affinities, relative to WT PCNA.
(§2) Protein interaction assays were carried out using the ProteOn XPR36 (Bio-Rad) instrument. WT or PCNA mutants (0.4 to 5.2 fmol) were immobilized on the surface of a GLM sensor chip by a carbodiimide-activated succinimide-coupling method, as specified by the manufacturer. All SPR experiments were performed by flowing 150 µl of the target peptide at a flow rate of 30 µl/min onto the PCNA-bound chip. Different concentrations (5–5,000 nM) of PIP peptides (Table 1) were injected over the PCNA chip, and binding parameters were determined using ProteOn XPR36 software (Bio-Rad). The ligand (PCNA) and analyte (peptide) buffers were PBST and 150 mM NaCl, 1 mM EDTA, 0.01% Tween-80, 30 mM Hepes, pH 7.5, respectively.

The next assay deals with Pol32 PIP peptide. As to the kind of experiment: SPR analysis of PCNA binding to PIP peptide. Further details: species or system yeast. Conditions: peptide 5-5,000 nM.
Excerpt: as §1, §2

The next assay has as its target Rad30 PIP peptide. As to the kind of experiment: SPR analysis of PCNA binding to PIP peptide. Further details: species or system yeast.
Excerpt: as §1, §2

The target in the next assay is T1, pol30-Pol32E9 (yeast, UniProt P15873 1-258, IDCL DIDADFLKIEEL to DNDVDSLKIIEL).
T1 construct: PCNA (POL30), yeast; source: yeast two-hybrid fusion (pAD-GAL4, strain YRG2)
T1 sequence: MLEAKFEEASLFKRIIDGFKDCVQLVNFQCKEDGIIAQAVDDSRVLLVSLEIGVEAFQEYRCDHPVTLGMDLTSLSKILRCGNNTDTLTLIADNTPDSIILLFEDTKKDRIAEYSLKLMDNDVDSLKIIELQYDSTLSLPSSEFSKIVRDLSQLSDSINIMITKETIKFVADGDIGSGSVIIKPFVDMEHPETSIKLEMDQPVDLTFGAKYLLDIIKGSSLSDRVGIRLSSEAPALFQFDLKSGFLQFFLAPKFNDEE
Kind of assay: two-hybrid; pAD-GAL4-PCNA WT or mutant (called bait) and pBD-GAL4-partner (called prey) in strain YRG2; 10-fold serial dilutions spotted on SC-Leu-Trp-His plates, 30°C, 3 d; growth similar to WT PCNA is denoted 1. Conditions: partners not purified.

The target of a further assay is T2, pol30-Msh6E6 (yeast, UniProt P15873 1-258, IDCL DIDADFLKIEEL to DYDKDLLKIIEL).
T2 construct: PCNA (POL30), yeast; source: yeast two-hybrid fusion (pAD-GAL4, strain YRG2)
T2 sequence: T1 sequence with N121Y, V123K, S125L
The description is as above. The settings on record: partners not purified.

Where [1] appears, read: footnote d, PCNA immobilized on GLM chip.

Where a chain is given by its changes, count along the chain named.

On to “POL30: wild-type yeast PCNA (POL30), IDCL sequence DIDADFLKIEEL”, for which, in the assay with yeast strains, the “effect of overexpression of Rad27, Rad30, Pol32, and Msh6 on growth sensitivity to DNA damaging agents” value (“effect of overexpression of Rad27, Rad30” below) is on record as “did not reduce the growth sensitivity”. Besides, the Kd amounted to 3000 nM on Msh6 PIP peptide (PCNA immobilized, ProteOn XPR36, read-out: Binding affinity for Msh6 PIP peptide (SPR)); 360 nM at Pol32 PIP peptide (PCNA immobilized, ProteOn XPR36, read-out: Binding affinity for Pol32 PIP peptide (SPR)); 170 nM at Rad30 PIP peptide (PCNA immobilized, peptide 5-5,000 nM, ProteOn XPR36, read-out: Binding affinity for Rad30 PIP peptide (SPR)). Besides, the “off-rate (kd) of the Rad30 PIP peptide” value with Rad30 PIP peptide (SPR) turned out to be 0.03 s⁻¹.

B1: Rad27 (natural protein, yeast, UniProt P26793 1-382, looked up)
chain: MGIKGLNAIISEHVPSAIRKSDIKSFFGRKVAIDASMSLYQFLIAVRQQDGGQLTNEAGETTSHLMGMFYRTLRMIDNGIKPCYVFDGKPPDLKSHELTKRSSRRVETEKKLAEATTELEKMKQERRLVKVSKEHNEEAQKLLGLMGIPYIIAPTEAEAQCAELAKKGKVYAAASEDMDTLCYRTPFLLRHLTFSEAKKEPIHEIDTELVLRGLDLTIEQFVDLCIMLGCDYCESIRGVGPVTALKLIKTHGSIEKIVEFIESGESNNTKWKIPEDWPYKQARMLFLDPEVIDGNEINLKWSPPKEKELIEYLCDDKKFSEERVKSGISRLKKGLKSGIQGRLDGFFQVVPKTKEQLAAAAKRAQENKKLNKNKNKVTKGRR
notes: Rad27 (endonuclease), yeast; also called pBD-Rad27; source: yeast two-hybrid fusion (pBD-GAL4, strain YRG2)
With B1, the “fold change in affinity relative to WT PCNA (Y2H)” value with pol30-Pol32E9 was 1.2 fold; with pol30-Msh6E6, 1.3 fold.

B2: pol30-Msh6E6: PCNA mutant evolved for Msh6, IDCL sequence DYDKDLLKIIEL (protein)
chain: T1 sequence with N121Y, V123K, S125L
modifications: left off: Gal4 activation domain, end not stated, kept
Consider B2, for which the “Fold increase in binding affinity for Msh6 PIP peptide relative to WT PCNA (SPR)” value in the assay on Msh6 PIP peptide (setting [1]) is 1.6 fold.

B3: pol30-Rad30E2: PCNA mutant evolved for Rad30, IDCL sequence DDDWDFLKILEL (protein)
chain: T1 sequence with N121D, V123W, S125F, I129L
modifications: left off: Gal4 activation domain, end not stated, kept
As to B3, in the assay on yeast strains, the “effect of rad30 deletion on strain growth sensitivity phenotype” value is reported as “suppression” and the “effect of rad27 deletion on growth sensitivity of the mutant strain” value (“effect of rad27 deletion” for short) is “suppression of the growth sensitivity”.

B4: pol30-Pol32E9 (protein)
chain: T1 sequence
modifications: left off: Gal4 activation domain, end not stated, kept
As for B4, the “Fold increase in binding affinity for Pol32 PIP peptide relative to WT PCNA (SPR)” value with Pol32 PIP peptide (setting [1]) amounted to 2 fold.

B5: pol30-Pol32E5: PCNA mutant evolved for Pol32, IDCL sequence DADNDFLKISEL (protein)
chain: T1 sequence with N121A, V123N, S125F, I129S
modifications: left off: Gal4 activation domain, end not stated, kept
With B5, the “effect of overexpression of Rad27, Rad30” value with yeast strains is given as “did not reduce the growth sensitivity”.

B6: pol30-Msh6E2: PCNA mutant evolved for Msh6, IDCL sequence DYDRDMLKISEL (protein)
chain: T1 sequence with N121Y, V123R, S125M, I129S
modifications: left off: Gal4 activation domain, end not stated, kept
As for B6, the “effect of rad27 deletion” value in the assay with yeast strains was “only weak effect”.

B7: pol30-Rad30E9: PCNA mutant evolved for Rad30, IDCL sequence DNDWDFLKIDEL (protein)
chain: T1 sequence with V123W, S125F, I129D
modifications: left off: Gal4 activation domain, end not stated, kept
With B7, the “effect of rad30 deletion on strain growth sensitivity phenotype” value with yeast strains is “suppression”. In addition, the “off-rate (kd) of the Rad30 PIP peptide” value with Rad30 PIP peptide (SPR) was 0.00321 s⁻¹. Also, the “fold increase in the lifetime of the PCNA-Rad30 complex” value with Rad30 PIP peptide (SPR, from Rad30 PIP peptide dissociation rate, relative to the WT) is given as ~9 fold. Also, the “Fold increase in binding affinity for Rad30 PIP peptide relative to WT PCNA (SPR)” value in the assay on Rad30 PIP peptide (footnote d, PCNA immobilized on GLM chip, peptide 5-5,000 nM) was 8.5 fold.

B8: pol30-Rad27E6: PCNA mutant evolved for Rad27, IDCL sequence DGDYDILKIREL (protein)
chain: T1 sequence with N121G, V123Y, S125I, I129R
modifications: left off: Gal4 activation domain, end not stated, kept
Consider B8, for which, in the assay on yeast strains, the “effect of rad27 deletion” value is recorded as “only weak effect”; the “effect of overexpression of Rad27, Rad30” value is listed as “did not reduce the growth sensitivity”.

B9: pol30-79: previously studied PCNA mutant with decreased partner binding, IDCL sequence DIDADFAKAEEL (protein)
chain: T1 sequence with N121I, V123A, S125F, L126A, I128A, I129E
modifications: left off: Gal4 activation domain, end not stated, kept
For the molecule B9, the “effect of overexpression of Rad27, Rad30” value in the assay on yeast strains is recorded as “did not reduce the growth sensitivity”.
